Experimental data taken from the supplement of paper PMC10126150.
± gives the standard deviation of the averaged measurements.

The sequences below were run on ATP (assay: switch fluorescence ratio, 500 uM ATP over buffer (Cy3 cluster intensity, sum of 5 cycles each) (fold (ratio)); higher = stronger signal-on switching upon ATP binding; sequences stand for … in TCGTCGGCAGCGTCAGATGTGTATAAGAGACAGTTTTTTTTTTTTTTTTTTTTTTTTT…TC). Settings: aptamer strand: ATP DNA aptamer (quencher-CACCTGGGGGAGTATTGCGGAGGAAGG + anchor), 100 nM annealed; ATP concentration: 500 uM.
How it was run: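 Between each of five buffer/ATP cycles, the flow-cell was stripped with NaOH and re-annealed. Each cycle imaged Cy3-labelled switching-strand clusters, annealed to 100 nM quencher-labelled ATP aptamer on a modified Illumina MiSeq flow-cell, first in selection buffer and then after 15 min with 500 uM ATP at 22 °C. The fluorescence ratio is summed target-cycle over summed buffer-cycle Cy3 intensity per cluster, averaged per switch-domain sequence, with clusters outside 100-1000 RFU excluded.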
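Also: ATP exposure 15 min at 22 °C before imaging.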

Sequence | switch fluorescence ratio
TTTACATTAT | 0.981 ± 0.058
AGCATTGGGT | 1.002 ± 0.0015
TGTTATATGC | 1 ± 0.019
CCACTAATGG | 1.03 ± 0.013
GAAAAGGGTT | 0.978 ± 0.032
GCAAAAAGGA | 1.6 ± 0.89
ATGGGGTGTT | 1 ± 0.024
ATATTAGACG | 1.04 ± 0.036
TTAAGTATTT | 0.997 ± 0.055
ACGAGGGGAA | 1.015 ± 0.0057
GCTTTTAGTG | 1 ± 0.039
GGGTTATTAT | 1.01 ± 0.019
GGCTGCCAGT | 0.9909 ± 0.0016
CCACGGGATT | 1.08 ± 0.035
TTTTACACTT | 1.04 ± 0.017
AATGGGATAC | 1.16 ± 0.027
GAGATTAGGT | 0.977 ± 0.015
CGAAAAAGAT | 1.04 ± 0.079
TCCAGCGCGG | 1.14 ± 0.015
ACATGCGGTG | 1.002 ± 0.0033
CGTGATGGTT | 0.983 ± 0.014
GAGTGAGACT | 1.02 ± 0.072
GGGGGTCTGA | 1 ± 0.024
TTGTTGAATT | 0.98 ± 0.042
TCTGCACATT | 1.07 ± 0.025
GCCCGGCCAG | 0.9693 ± 0.0062

Sequence | switch fluorescence ratio
CGATTATCTT | 1.01 ± 0.011
GCGCTTCAA | 0.971 ± 0.014
CAACGGTTTC | 1.01 ± 0.019
ATGCAAGGGC | 1.08 ± 0.024
ATTATGGGAG | 0.989 ± 0.011
TAAAAGGGCT | 0.999 ± 0.011
TTAGGGGACA | 1.04 ± 0.025
TATTGGGTTC | 0.965 ± 0.011
CCATTGTCCC | 1.05 ± 0.029
TTGTTTAACG | 0.99757 ± 0.00042
GTTCTTTTGG | 0.973 ± 0.01
TTTGAATAGG | 1.01 ± 0.016
CCACTATTAG | 1.03 ± 0.021
ATCGTATACC | 1.01 ± 0.022
TTCCGCACGT | 2.64 ± 1.3
GTTTATTGGC | 0.995 ± 0.019
ACAAGTAAGC | 1.048 ± 0.0067
TTGAGAGGAG | 0.98 ± 0.02
AATTTGGCAC | 1.05 ± 0.09
GGTTTCGTCC | 1.02 ± 0.0023
GGTATGGGTG | 1.023 ± 0.0055
TAACAGGGGG | 0.995 ± 0.017
TGTGTGGGTA | 0.95768 ± 0.00058
CAGAGAATTT | 1.004 ± 0.0046
TTTGAATTAT | 0.975 ± 0.021
TATAATTAGG | 0.98 ± 0.027

Sequence | switch fluorescence ratio
TTTGATATTA | 0.994 ± 0.026
TTAGGTCCGG | 1.008 ± 0.0092
ACGCGCGTCG | 1 ± 0.063
ATGTTTTAGG | 1.01 ± 0.047
GACATAAATG | 1.03 ± 0.12
TTGGTTTGTT | 0.982 ± 0.018
TGTATATCTA | 1.02 ± 0.025
ACAAGATACA | 1.03 ± 0.021
AATCTGGTGT | 1.02 ± 0.054
TTGCGCGCTA | 0.98 ± 0.054
TGGTTCTTAA | 1.01 ± 0.041
ATTCTCCTTG | 1 ± 0.017
TTATATTTTT | 1.02 ± 0.023
TCGCGGAGTT | 1 ± 0.011
CTTCGAAGTT | 0.98 ± 0.045
TGGTTTCGGT | 0.9903 ± 0.0017
TTTTTATTGG | 0.985 ± 0.025
CATTAGGCAA | 1.696 ± 0.0032
GCTTCGGAGA | 1.029 ± 0.0017
GGTTGGAAAT | 0.99 ± 0.06
TTAAGGCTAA | 1.03 ± 0.038
ACGTGATTTT | 1.09 ± 0.065
GTCAAATGGT | 0.972 ± 0.021
GTGGGCGGCG | 1.02 ± 0.064
TCGAGGGGCG | 1.06 ± 0.019
CCAGTAGTTT | 1 ± 0.013

Sequence | switch fluorescence ratio
GGTAAATTGT | 1.01 ± 0.028
GCTAAAACCT | 2.25 ± 0.23
CGTGTAAGTA | 1.011 ± 0.0044
TTGAATCCAT | 1.01 ± 0.019
ACTAGGGATG | 0.987 ± 0.014
TCAAAATGCT | 1.09 ± 0.058
CTGGGAGTGT | 0.9946 ± 0.0092
GGGACCCAGC | 0.992 ± 0.039
GTTGGCTTGG | 1.02 ± 0.04
GGAAGTGGGC | 1.0283 ± 0.00079
GCATTCCGTT | 1.02 ± 0.011
TATTTGGAGG | 0.992 ± 0.0044
TTCCTCGTTA | 1.39 ± 0.029
ATATAAGAAA | 1.03 ± 0.041
ATGAGTGCTT | 0.9776 ± 0.0075
GAGAGGGTTG | 0.971 ± 0.033
CCTTTAGGTT | 1 ± 0.049
GGGTATGGCT | 1.02 ± 0.018
CGGTTTGGGT | 0.9931 ± 0.0043
TAGTGTAGGA | 1 ± 0.034
AAAAAAAGCT | 1.06 ± 0.075
AAATACTTGC | 1.14 ± 0.074
GGCCGGTGTA | 1.03 ± 0.013
TGAGGGTGTT | 0.998 ± 0.011
CGGGTGGGGC | 1.02 ± 0.052
TTTGGTTTGT | 1.1 ± 0.19

Sequence | switch fluorescence ratio
ATAGGAGTTA | 0.9814 ± 0.0071
TAAAAGATAG | 1 ± 0.019
CGGGAGCG | 1.03 ± 0.022
GACCTTGATT | 1.03 ± 0.029
TGTGAATTCT | 0.993 ± 0.023
ATTGAGAGGG | 1.07 ± 0.075
ATGAATTTGC | 0.979 ± 0.044
ATGTATCAGG | 1.03 ± 0.022
TCGGAGCCAC | 3.16 ± 3
AAAGATTAAA | 0.9918 ± 0.0056
GATGGGGATG | 0.9677 ± 0.0045
GAGCGCGAGG | 0.99 ± 0.037
GCGGCCCTGG | 1.008 ± 0.0064
TGTTGAGGAA | 1.05 ± 0.053
TTAAGGAGCA | 1.05 ± 0.044
GGGGGCAGAG | 0.991 ± 0.035
GTTACTTGGT | 1.01 ± 0.034
TCTGGGGGAA | 1.06 ± 0.15
CCAGCATGGG | 1.02 ± 0.015
CTGAATCCGT | 1.25 ± 0.036
TGGTTTGATT | 1.003 ± 0.0064
GTAATCTTTA | 0.982 ± 0.029
AATTTAAAGC | 1.03 ± 0.07
TTTTGCCAGT | 1.11 ± 0.23
ACGTAGAATG | 1.06 ± 0.015
TACCGCTTGC | 2.01 ± 0.53

Sequence | switch fluorescence ratio
TTCTCAGGGG | 1.12 ± 0.038
TAATGAGGGA | 1 ± 0.038
GGTGATTATT | 1.02 ± 0.029
TGCCAGTTTG | 0.9907 ± 0.0065
TGCGAATTGT | 1.01 ± 0.012
TTGAAGGAGA | 1.01 ± 0.021
CCAGTGAGGG | 0.99 ± 0.026
GGGGTAGCAT | 0.986 ± 0.028
GCCGTCAGTT | 0.9899 ± 0.0048
TTTGATATAT | 0.972 ± 0.012
GTGATTGGCG | 0.971 ± 0.046
TAAGCGGGGA | 1.027 ± 0.0054
GGGAGGGCAT | 1 ± 0.027
TTTGTATTGC | 1.01 ± 0.025
TTTATCTGCT | 0.981 ± 0.037
TTCTTGGGAT | 1 ± 0.019
TGGGGATTGT | 0.968 ± 0.023
TGTAGATTTT | 0.981 ± 0.011
AGCGGGAACG | 1.005 ± 0.0013
CGCGAGGACT | 1.27 ± 0.11
AGGGGGGGTA | 0.997 ± 0.033
ATTCCAATTT | 1.08 ± 0.035
TAGCAGATCA | 0.994 ± 0.024
